Bridge positions count the residues as written; N and C are the ends. Square brackets hold non-standard residues; d marks the D form. Ends that are not written are not given here. S5 = C=CCCC[C@](C)(N)C(=O)O
T1: Purified TRB3 protein (purchased from RD) (UniProt Q96RU7 1-358, limits assumed)
T1 construct: Amine-coupled to the Biacore chip; also called Tribbles Homologue 3
T1 sequence (looked up): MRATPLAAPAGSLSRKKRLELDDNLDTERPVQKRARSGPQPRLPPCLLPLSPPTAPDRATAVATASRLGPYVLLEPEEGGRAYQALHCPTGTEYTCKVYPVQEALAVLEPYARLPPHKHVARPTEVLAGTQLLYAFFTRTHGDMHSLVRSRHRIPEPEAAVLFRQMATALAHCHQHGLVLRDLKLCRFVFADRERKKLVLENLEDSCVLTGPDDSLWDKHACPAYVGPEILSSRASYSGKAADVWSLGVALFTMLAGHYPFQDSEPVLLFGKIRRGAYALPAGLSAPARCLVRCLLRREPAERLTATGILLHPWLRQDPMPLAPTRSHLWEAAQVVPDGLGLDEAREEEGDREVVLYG


Molecular target: T1, Purified TRB3 protein (purchased from …)
Assay: SPR, Biacore T200, TRB3 amine-coupled to chip, peptide as analyte, 25° C.
Description: The surface plasmon resonance experiment was carried out in a surface plasmon resonator Biacore T200, and the procedure was carried out in accordance with the instructions of the plasma resonator Biacore T200. Specific steps are as follows:
1. Purified TRB3 protein (purchased from RD) was coupled to a CMS chip (purchased from GE) by amidogen, and the unbound protein was eluted at a flow rate of 10 μL/min. The surface of the chip was equilibrated for 2 hours. Among them, the specific steps of amidogen coupling, elution and equilibration refer to the relevant instruction of GE's CMS chip.
2. […] The buffer used was HBS-EP buffer [0.01 M HEPES, 0.15 M NaCl, 3 mM EDTA and 0.005% (w/w) surfactant TWEEN20]. Biacore T200's built-in analysis software was used to simulate the binding curves of different concentrations of peptides to TRB3. FIG. 4-1, 4-2 and Table 1 illustrate that peptides MR2, S1, S2, S3, S4, S5, S6, S7, S8, S9, S10 and S11 can all interacted with the TRB3 protein.

Binder | Kd
HLMACFTCAKKLKKR (Synthetic unmodified 15-mer; also called MR2 polypeptide) [polypeptide MR2] | 43.3 nM
HLMACFTC[S5]KKL[S5]KR (staple 9-13; cysteine pairing not given here, Stapled variant of MR2) [polypeptide S9] | 37.1 nM
HLMACFTCA[S5]KLK[S5]R (staple 10-14; cysteine pairing not given here, Stapled variant of MR2) [polypeptide S10] | 29.3 nM
HLMACFTCAK[S5]LKK[S5] (staple 11-15; cysteine pairing not given here, Stapled variant of MR2) [polypeptide S11] | 37.7 nM
[S5]LMA[S5]FTCAKKLKKR (staple 1-5, Stapled variant of MR2) [polypeptide S1] | 20.2 nM
H[S5]MAC[S5]TCAKKLKKR (staple 2-6; cysteine pairing not given here, Stapled variant of MR2) [polypeptide S2] | 19.1 nM
HL[S5]ACF[S5]CAKKLKKR (staple 3-7; cysteine pairing not given here, Stapled variant of MR2) [polypeptide S3] | 42.7 nM
HLM[S5]CFT[S5]AKKLKKR (staple 4-8, Stapled variant of MR2) [polypeptide S4] | 9.63 nM
HLMA[S5]FTC[S5]KKLKKR (staple 5-9, Stapled variant of MR2) [polypeptide S5] | 11.5 nM
HLMAC[S5]TCA[S5]KLKKR (staple 6-10; cysteine pairing not given here, Stapled variant of MR2) [polypeptide S6] | 49.6 nM
HLMACF[S5]CAK[S5]LKKR (staple 7-11; cysteine pairing not given here, Stapled variant of MR2) [polypeptide S7] | 8.95 nM
HLMACFT[S5]AKK[S5]KKR (staple 8-12, Stapled variant of MR2) [polypeptide S8] | 35.9 nM

Source: patent publication US20210179680A1, “POLYPEPTIDE, DERIVATIVES THEREOF, AND APPLICATION THEREOF IN PREPARATION OF DRUGS HAVING RESISTANCE TO PULMONARY FIBROSIS” (priority 2016, published 2021)
